According to paper PMC10014292:

Experiments:
Settings in all cases: glycan lost; control: wild type
[1] = cycloheximide chase, rate of YFP fluorescence decline
[2] = whole-cell patch clamp, HEK-293T
[3] = NFAT promoter activity with TRPC6 antagonist
[4] = Nppa, Rcan1 qPCR ± angiotensin II, rat cardiomyocytes

B1: TRPC6: T221A (protein)
parent chain: MSQSPAFGPRRGSSPRGAAGAAARRNESQDYLLMDSELGEDGCPQAPLPCYGYYPCFRGSDNRLAHRRQTVLREKGRRLANRGPAYMFSDRSTSLSIEEERFLDAAEYGNIPVVRKMLEECHSLNVNCVDYMGQNALQLAVANEHLEITELLLKKENLSRVGDALLLAISKGYVRIVEAILSHPAFAEGKRLATSPSQSELQQDDFYAYDEDGTRFSHDVTPIILAAHCQEYEIVHTLLRKGARIERPHDYFCKCNDCNQKQKHDSFSHSRSRINAYKGLASPAYLSLSSEDPVMTALELSNELAVLANIEKEFKNDYKKLSMQCKDFVVGLLDLCRNTEEVEAILNGDVETLQSGDHGRPNLSRLKLAIKYEVKKFVAHPNCQQQLLSIWYENLSGLRQQTMAVKFLVVLAVAIGLPFLALIYWFAPCSKMGKIMRGPFMKFVAHAASFTIFLGLLVMNAADRFEGTKLLPNETSTDNAKQLFRMKTSCFSWMEMLIISWVIGMIWAECKEIWTQGPKEYLFELWNMLDFGMLAIFAASFIARFMAFWHASKAQSIIDANDTLKDLTKVTLGDNVKYYNLARIKWDPSDPQIISEGLYAIAVVLSFSRIAYILPANESFGPLQISLGRTVKDIFKFMVIFIMVFVAFMIGMFNLYSYYIGAKQNEAFTTVEESFKTLFWAIFGLSEVKSVVINYNHKFIENIGYVLYGVYNVTMVIVLLNMLIAMINSSFQEIEDDADVEWKFARAKLWFSYFEEGRTLPVPFNLVPSPKSLFYLLLKLKKWISELFQGHKKGFQEDAEMNKINEEKKLGILGSHEDLSKLSLDKKQVGHNKQPSIRSSEDFHLNSFNNPPRQYQKIMKRLIKRYVLQAQIDKESDEVNEGELKEIKQDISSLRYELLEEKSQNTEDLAELIRELGEKLSMEPNQEETNR
With B1 the degradation_or_half_life [1] was “decreases”, the “other: channel current, other: percent increase in current” value [2] was “increases” and the “other: antagonist sensitivity” value [3] was “no change”. The “other: response to angiotensin II” value [4] was “no change”.
